Ten substances from patent US20150150960A1, “PROTECTION AGAINST DENGUE VIRUS AND PREVENTION OF SEVERE DENGUE DISEASE” (priority 2010, published 2015) can be followed below.

The target in test [1] is target splenocytes pulsed with NS2B108-122, NS3198-212 and NS3237-251 together (I-A^b-restricted).
Test [2] has as its target purified HLA B*0702 molecules (human). The test can be described thus: inhibition of radiolabeled probe peptide binding to purified HLA.
The target of test [3] is purified HLA A*0201 molecules (human). The test is described as above.
In test [4] the target is NS31863-1871 / HLA A*1101 (DENV2 strain S221; human).
Test [5] has as its target NS53079-3087 / HLA A*1101 (DENV2 strain S221; human).
Test [6] concerns the target NS2B1356-1370 / HLA DRB1*0101 (DENV2 strain S221; human).
For test [7], the target named is NS2A1251-1259 / HLA A*0101 (DENV2 strain S221; human).
In test [8] the target is NS32013-2022 / HLA A*0201 (DENV2 strain S221; human).
The target in test [9] is NS4B2315-2323 / HLA A*1101 (DENV2 strain S221; human).
The target in test [10] is NS53058-3066 / HLA A*0201 (DENV2 strain S221; human).
Test [11] concerns the target NS4A2074-2083 / HLA A*1101 (DENV2 strain S221; human).
Test [12] concerns the target NS31700-1709 / HLA B*0702 (DENV2 strain S221; human).
For test [13], the target named is NS11090-1099 / HLA A*0101 (DENV2 strain S221; human).
In test [14] the target is NS53112-3121 / HLA A*1101 (DENV2 strain S221; human).
The target of test [15] is NS31682-1690 / HLA B*0702 (DENV2 strain S221; human).
Test [16] deals with NS31509-1517 / HLA A*1101 (DENV2 strain S221; human).
The target in test [17] is NS53283-3291 / HLA A*1101 (DENV2 strain S221; human).
Test [18] concerns the target NS52885-2894 / HLA B*0702 (DENV2 strain S221; human).
In test [19] the target is NS4A2140-2148 / HLA A*0201 (DENV2 strain S221; human).
Test [20] concerns the target NS53077-3085 / HLA B*0702 (DENV2 strain S221; human).
Test [21] concerns the target NS2A1199-1213 / HLA DRB1*0101 (DENV2 strain S221; human).
The target of test [22] is NS52608-2616 / HLA A*1101 (DENV2 strain S221; human).
Test [23] addresses C53-67 / HLA DRB1*0101 (DENV2 strain S221; human).
In test [24] the target is NS52646-2655 / HLA B*0702 (DENV2 strain S221; human).
For test [25], the target named is E451-459 / HLA A*0101 (DENV2 strain S221; human).
In test [26] the target is NS31808-1817 / HLA B*0702 (DENV2 strain S221; human).
The target of test [27] is NS2B1383-1391 / HLA A*0201 (DENV2 strain S221; human).
Test [28] has as its target NS2B1355-1363 / HLA A*0201 (DENV2 strain S221; human).
Test [29] deals with NS4B2399-2407 / HLA A*0101 (DENV2 strain S221; human).
The target in test [30] is E631-639 / HLA A*0201 (DENV2 strain S221; human).
The target of test [31] is NS4B2280-2289 / HLA B*0702 (DENV2 strain S221; human).
Test [32] has as its target NS2B1450-1459 / HLA A*0201 (DENV2 strain S221; human).
The target of test [33] is NS2A1212-1221 / HLA B*0702 (DENV2 strain S221; human).
The target of test [34] is NS31465-1473 / HLA A*0201 (DENV2 strain S221; human).
In test [35] the target is NS31753-1761 / HLA B*0702 (DENV2 strain S221; human).
Test [36] addresses NS52966-2980 / HLA DRB1*0101 (DENV2 strain S221; human).
Test [37] has as its target NS31978-1987 / HLA B*0702 (DENV2 strain S221; human).
Test [38] deals with NS31608-1617 / HLA A*1101 (DENV2 strain S221; human).
For test [39], the target named is NS4A2205-2213 / HLA A*0201 (DENV2 strain S221; human).
In test [40] the target is NS53375-3383 / HLA A*0101 (DENV2 strain S221; human).
Test [41] has as its target NS4B2296-2304 / HLA B*0702 (DENV2 strain S221; human).
For test [42], the target named is NS31681-1689 / HLA A*0201 (DENV2 strain S221; human).
Test [43] has as its target NS31742-1756 / HLA DRB1*0101 (DENV2 strain S221; human).
The target of test [44] is NS2A1192-1200 / HLA A*0101 (DENV2 strain S221; human).
Test [45] addresses NS4B2280-2289 / HLA B*0702 (DENV2 strain S221; human). This is another data set of the same source.
The target in test [46] is NS32070-2078 / HLA B*0702 (DENV2 strain S221; human).

Some results are limits rather than exact numbers.

“CD4+ T cells of DENV2-infected IFN-α/βR-/- mice (C57BL/6 background) (cells without a defined receptor)” came in with an in vivo cytotoxicity assay, percentage killing in test [1] of 30%.
Regarding NS4B2296-2305 (peptide), the IC50 (as a rule, the point on the concentration scale where inhibition reaches its midpoint) in test [2] was above 1 µM.
On to NS31681-1689 (peptide), for which, in test [3], the IC50 amounted to 0.018 µM.
Turning to “PBMC from HLA matched DENV seropositive human donors (cells without a defined receptor)”, the T cell responses [SFC] human (IFNγ ELISPOT) was 0 SFC in [4]; 0 SFC in test [5]; 279 SFC in test [6]; 143 SFC in [7]; 312 SFC in [8]; 0 SFC in test [9]. Also, the T cell responses [SFC] human (IFNγ ELISPOT) is 597 SFC in test [10]; 3090 SFC in [11]; 1430 SFC in [12]; 104 SFC in test [13]; 0 SFC in test [14]; 207 SFC in test [15]. The T cell responses [SFC] human (IFNγ ELISPOT) came out at 0 SFC in test [16]; 800 SFC in [17]; 1340 SFC in test [18]; 297 SFC in test [19]; 390 SFC in test [20]; 249 SFC in test [21]. The T cell responses [SFC] human (IFNγ ELISPOT) in test [22] was 0 SFC; in test [23], 314 SFC; in test [24], 0 SFC; in test [25], 67 SFC; in [26], 232 SFC; in test [27], 434 SFC. Also, the T cell responses [SFC] human (IFNγ ELISPOT) in test [28] was 417 SFC; in [29], 92 SFC; in test [30], 393 SFC; in test [31] it was 0 SFC; in test [32], 588 SFC; in test [33], 335 SFC. Also, the T cell responses [SFC] human (IFNγ ELISPOT) is 495 SFC in test [34]; 410 SFC in test [35]; 729 SFC in test [36]; 1820 SFC in test [37]; 880 SFC in test [38]; 301 SFC in test [39]. Also, the results for the T cell responses [SFC] human (IFNγ ELISPOT) in [40], in [41] and in [42] were 143 SFC, 460 SFC and 401 SFC, respectively.
Consider “splenic CD4+ T cells of DENV2 (S221)-infected HLA DRB1*0101 transgenic IFN-α/βR-/- mice (cells without a defined receptor)”, for which the T cell responses [SFC] mouse (IFNγ ELISPOT) in test [6] was 65 SFC; in [43] it was 448 SFC; in test [21], 764 SFC; in [23], 77 SFC; in test [36] it was 851 SFC.
As for “splenic CD8+ T cells of DENV2 (S221)-infected HLA A*0101 transgenic IFN-α/βR-/- mice (cells without a defined receptor)”, the T cell responses [SFC] mouse (IFNγ ELISPOT) came to 465 SFC in test [7]; 228 SFC in [13]; 327 SFC in test [25]; 153 SFC in test [29]; 495 SFC in test [40]; 430 SFC in test [44].
For the substance “splenic CD8+ T cells of DENV2 (S221)-infected HLA A*0201 transgenic IFN-α/βR-/- mice (cells without a defined receptor)”, the T cell responses [SFC] mouse (IFNγ ELISPOT) was 417 SFC in test [8]; 353 SFC in test [10]; 384 SFC in test [19]; 519 SFC in test [27]; 265 SFC in test [30]; 207 SFC in [34]. This substance also yielded a T cell responses [SFC] mouse (IFNγ ELISPOT) in test [42] of 299 SFC.
As to “splenic CD8+ T cells of DENV2 (S221)-infected HLA A*1101 transgenic IFN-α/βR-/- mice (cells without a defined receptor)”, the T cell responses [SFC] mouse (IFNγ ELISPOT) was 208 SFC in test [4]; 105 SFC in [5]; 712 SFC in [9]; 148 SFC in test [11]; 436 SFC in [16]; 358 SFC in test [17]. Moreover, the T cell responses [SFC] mouse (IFNγ ELISPOT) in test [38] came out at 1000 SFC.
Substance “splenic CD8+ T cells of DENV2 (S221)-infected HLA B*0702 transgenic IFN-α/βR+/+ mice (cells without a defined receptor)” displayed an IFNγ ELISPOT (SFC/10^6 CD8+ T cells) in test [45] of 50.
As for “splenic CD8+ T cells of DENV2 (S221)-infected HLA B*0702 transgenic IFN-α/βR-/- mice (cells without a defined receptor)”, the T cell responses [SFC] mouse (IFNγ ELISPOT) in [12] was 1060 SFC; in test [15], 1290 SFC; in test [18] it was 811 SFC; in [20] it was 487 SFC; in test [24], 994 SFC; in test [46], 1850 SFC. Moreover, the T cell responses [SFC] mouse (IFNγ ELISPOT) in test [26] came to 364 SFC; in test [31] it was 1540 SFC; in [33], 400 SFC; in test [35], 509 SFC; in test [41], 1010 SFC.
